Patent US20220064325A1 (ALLIGATOR BIOSCIENCE, published 2022)
Blank lines part the entries; values can stand above or below the binder they belong to.

What was measured:
[1] = molecular target: T1, human EpCAM expressed on cells (human, UniProt P16422 24-314); assay: flow cytometry, titration of biotinylated antibody on EpCAM-transfected CHO cells, detection with fluorochrome-conjugated streptavidin
T1 construct: whole, on cells; In the debris and exosome assays EpCAM stands on heat-shocked tumour cell debris or on exosomes; also called EpCAM on CHO-EpCAM, JEG, JAR, HT29, BxPC3, MCF7 and MB49-hEpCAM-OVA cells, their debris or exosomes
T1 sequence (looked up): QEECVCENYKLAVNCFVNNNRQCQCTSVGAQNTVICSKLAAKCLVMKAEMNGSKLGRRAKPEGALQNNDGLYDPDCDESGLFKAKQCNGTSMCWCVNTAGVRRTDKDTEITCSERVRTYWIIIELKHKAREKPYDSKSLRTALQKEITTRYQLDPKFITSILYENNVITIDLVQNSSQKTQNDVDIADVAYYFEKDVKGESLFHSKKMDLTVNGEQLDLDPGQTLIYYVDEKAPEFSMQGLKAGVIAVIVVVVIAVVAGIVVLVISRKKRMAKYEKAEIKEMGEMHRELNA
Description: FIG. 3. […] Binding of biotinylated antibodies was detected by flow cytometry using fluorochrome-conjugated streptavidin. Results are pooled from two replicates in one representative experiment of two.
The human EpCAM gene was cloned into pcDNA3.1, and the vector was subsequently stably transfected into CHO cells. Control CHO cells were stably transfected with and empty pcDNA3.1 vector. […] Binding of biotinylated antibodies was detected with fluorochrome-conjugated streptavidin and analysed using flow cytometry.

[2] = molecular target: T2, human CD40 expressed on cells (human, UniProt P25942 21-277); assay: flow cytometry, titration of biotinylated antibody on human PBMC gated with CD19, CD14, CD3 and CD56, detection with fluorochrome-conjugated streptavidin
T2 construct: whole, on cells; also called CD40 on primary human B cells, monocytes, monocyte-derived DCs, Raji cells and hCD40tg mouse DCs
Description: FIG. 5. […] Binding of biotinylated antibodies to different cell populations was detected by flow cytometry using fluorochrome-conjugated streptavidin. Results are pooled from three donors in one representative experiment of two.
Binding of biotinylated antibodies was detected with fluorochrome-conjugated streptavidin and analysed using flow cytometry.

[3] = molecular target: T3, hEpCAM (R&D Systems #9277-EP), monomeric antigen EpCAM-his (human, UniProt P16422 24-265); assay: Mono ELISA (top frame): plate coated with 0.5 µg/mL hEpCAM, detection with HRP-labelled goat anti-human kappa light chain, luminescence
T3 construct: Bought reagent; also called human EpCAM; not shown: His tag
T3 sequence (looked up): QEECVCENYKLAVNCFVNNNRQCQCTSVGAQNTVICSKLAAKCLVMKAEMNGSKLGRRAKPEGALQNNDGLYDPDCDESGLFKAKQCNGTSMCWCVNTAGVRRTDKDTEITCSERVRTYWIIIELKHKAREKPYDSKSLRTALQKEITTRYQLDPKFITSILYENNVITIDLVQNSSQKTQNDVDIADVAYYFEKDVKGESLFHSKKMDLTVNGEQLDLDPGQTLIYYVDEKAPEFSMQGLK

[4] = molecular target: T4, dimeric antigen EpCAM-Fc (Sino hEpCAM_Fc #10694-H02H) (human, UniProt P16422 24-265); assay: BLI (Octet RED96), Assay 1: bsAb on FAB2G sensors, dimeric EpCAM-Fc in solution, 1:1 fit
T4 construct: not shown: Fc part
T4 sequence (looked up): T3 sequence (looked up)
Description: (§1) Kinetic measurements were performed using the Octet RED96 platform (ForteBlo).
(§2) BsAb at 1.0 or 1.5 ug/ml where coupled to anti-human Fab-CH1 2nd generation (FAB2G) biosensors (Part no #18-5125 (tray)). Antigens were serially diluted % in 1× Kinetic buffer (ForteBio) to 100 nM, 50 nM, 25 nM, 12.5 nM, 6.25 nM, 3.125 nM, 1.56 nM or 0 nM. The association was followed for 300 seconds and the dissociation in 1× Kinetic buffer for 300 seconds. Sensor tips were regenerated using 10 mM glycine, pH 1.5. Data generated were referenced by subtracting a parallel buffer blank, the baseline was aligned with the y-axis, inter-step correlation by alignment against dissociation was performed and the data were smoothed by a Savitzky-Golay filter in the data analysis software (v.9.0.0.14). The processed data were fitted using a 1:1 Langmuir binding model with X2 as a measurement of fitting accuracy.

[5] = molecular target: T3, hEpCAM (R&D Systems #9277-EP), …; assay: BLI (Octet RED96), Assay 2: bsAb on FAB2G sensors, monomeric EpCAM-his in solution, 1:1 fit
Description: as §1, §2

[6] = molecular target: T4, dimeric antigen EpCAM-Fc (Sino …); assay: BLI (Octet RED96), Assay 3: hEpCAM_Fc coupled to AR2G sensors, bsAb in solution, 1:1 fit
Description: as §1
Antigen was coupled to Amine reactive Second generation sensors (Dip and Read Amine reactive Second-Generation (AR2G) Biosensors (Part no #18-5092 (tray)) at antigen concentrations of 0.4, 1.5, 0.25 or 0.5 μg/mL. BsAb (serially diluted % in 1× Kinetic buffer (ForteBio) with start concentrations of 20, 15, 10 or 25 nM) were analysed for binding to antigen-coupled sensors. The association was followed for 300 seconds and the dissociation in 1× Kinetic buffer for 300 seconds. Sensor tips were regenerated using 10 mM glycine, pH 2.2. Data generated were referenced by subtracting a parallel buffer blank, the baseline was aligned with the y-axis, inter-step correlation by alignment against dissociation was performed and the data were smoothed by a Savitzky-Golay filter in the data analysis software (v.9.0.0.14). The processed data were fitted using a 1:1 Langmuir binding model with X2 as a measurement of fitting accuracy.

T2 sequence (P25942 21-277): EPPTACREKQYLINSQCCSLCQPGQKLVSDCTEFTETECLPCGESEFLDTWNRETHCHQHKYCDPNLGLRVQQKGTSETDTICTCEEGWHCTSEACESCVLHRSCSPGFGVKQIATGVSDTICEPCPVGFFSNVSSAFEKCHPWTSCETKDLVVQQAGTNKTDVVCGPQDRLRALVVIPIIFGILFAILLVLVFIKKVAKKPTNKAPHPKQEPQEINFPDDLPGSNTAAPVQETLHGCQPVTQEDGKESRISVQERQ

binding result [1]: no binding (tested: about 300 nM) | binding result [2]: binds
B1: 1132.m2 (antibody, V domains shown)
VH: EVQLLESGGGLVQPGGSLRLSCAASGFTFSSYAMSWVRQAPGKGLEWVSGIGSYGGGTYYADSVKGRFTISRDNSKNTLYLQMNSLRAEDTAVYYCARYVNFGMDYWGQGTLVTVSS
VL: DIQMTQSPSSLSASVGDRVTITCRASQSISSYLNWYQQKPGKAPKLLIYAASSLQSGVPSRFSGSGSGTDFTLTISSLQPEDFATYYCQQYGRNPPTFGQGTKLEIK
notes: Full chains are not tied to this name; also called LALA-mutated agonistic monoclonal CD40 antibody

EC50 (read off the curve) [3]: ~0.4 nM | Kd [4]: < 0.001 nM | koff [4]: < 1e-07 s⁻¹ | kon [4]: 300000 M⁻¹ s⁻¹ | Kd [5]: 30 nM | koff [5]: 0.004 s⁻¹ | kon [5]: 100000 M⁻¹ s⁻¹
B2: 1132-3188.M (bispecific antibody, V domains shown)
VH 1: B1 VH
VL 1: B1 VL
VH 2: EVQLVQSGPGLVQPGGSVRISCAASGYTFTNYGMNWVKQAPGKGLEWMGWINTYTGESTYADSFKGRFTFSLDTSASAAYLQINSLRAEDTAVYYCARFAIKGDYWGQGTLLTVSS
VL 2: DIQMTQSPSSLSASVGDRVTITCRSTKSLLHSNGITYLYWYQQKPGKAPKLLIYQMSNLASGVPSRFSSSGSGTDFTLTISSLQPEDFATYYCAQNLEIPRTFGQGTKVELK
notes: also called CD40-EpCAM bispecific antibody in the Morrison format; 3188 = 4D5MOCB = BM1

EC50 (read off the curve) [3]: ~0.5 nM | Kd [4]: 4 nM | koff [4]: 0.001 s⁻¹ | kon [4]: 300000 M⁻¹ s⁻¹ | Kd [5]: 300 nM | koff [5]: 0.01 s⁻¹ | kon [5]: 30000 M⁻¹ s⁻¹
B3: 1132-005025.M (bispecific antibody)
VH: B1 VH
VL: B1 VL
scFv: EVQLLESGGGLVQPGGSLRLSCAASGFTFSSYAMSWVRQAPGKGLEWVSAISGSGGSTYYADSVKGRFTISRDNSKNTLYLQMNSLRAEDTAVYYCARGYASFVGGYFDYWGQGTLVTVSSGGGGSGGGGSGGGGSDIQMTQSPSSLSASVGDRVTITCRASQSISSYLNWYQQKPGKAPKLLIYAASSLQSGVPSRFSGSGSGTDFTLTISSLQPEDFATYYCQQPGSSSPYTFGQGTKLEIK
notes: also called CD40-EpCAM bispecific antibody in the Morrison format

Kd [6]: 10 nM | koff [6]: 0.002 s⁻¹ | kon [6]: 200000 M⁻¹ s⁻¹ | Kd [4]: 0.5 nM | koff [4]: 8e-05 s⁻¹ | kon [4]: 200000 M⁻¹ s⁻¹ | Kd [5]: 500 nM | koff [5]: 0.01 s⁻¹ | kon [5]: 20000 M⁻¹ s⁻¹
B4: 1132-3174.M (bispecific antibody, V domains shown)
VH 1: B1 VH
VL 1: B1 VL
VH 2: EVQLLEQSGAELVRPGTSVKISCKASGYAFTNYWLGWVKQRPGHGLEWIGDIFPGSGNIHYNEKFKGKATLTADKSSSTAYMQLSSLTFEDSAVYFCARLRNWDEPMDYWGQGTTVTVSS
VL 2: ELVMTQSPSSLTVTAGEKVTMSCKSSQSLLNSGNQKNYLTWYQQKPGQPPKLLIYWASTRESGVPDRFTGSGSGTDFTLTISSVQAEDLAVYYCQNDYSYPLTFGAGTKLEIK
notes: as for B3

EC50 (read off the curve) [3]: ~1 nM | Kd [4]: 6 nM | koff [4]: 0.002 s⁻¹ | kon [4]: 300000 M⁻¹ s⁻¹ | Kd [5]: 1000 nM | koff [5]: 0.01 s⁻¹ | kon [5]: 8000 M⁻¹ s⁻¹
B5: 1132-005038.M (bispecific antibody)
VH: B1 VH
VL: B1 VL
scFv: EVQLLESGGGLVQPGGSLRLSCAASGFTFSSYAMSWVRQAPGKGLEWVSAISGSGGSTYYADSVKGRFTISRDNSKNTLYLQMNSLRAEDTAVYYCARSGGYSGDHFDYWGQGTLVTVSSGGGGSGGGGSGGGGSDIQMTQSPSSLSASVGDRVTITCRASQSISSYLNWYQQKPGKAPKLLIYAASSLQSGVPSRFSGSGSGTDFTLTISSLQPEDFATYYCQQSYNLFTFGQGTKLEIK
notes: as for B3
